Values quoted from earlier work as cited in publication PMC3430373.

Target: S10:NusB complex (Escherichia coli) (UniProt C4ZUH6)
Assay: NMR

For NusG CTD (from UniProt P0AFG0), the Kd is listed as 50 µM.
